Experimental data from publication doi:10.1101/2025.08.05.667158.

Experiments:
[1] = target: IR-A in cell membranes of human IM-9 lymphocytes (human (endogenous in IM-9)) (UniProt P06213); assay: radioligand binding
[2] = target: human IR-A ECD construct (residues 1-917) (human); assay: cryo-EM structure

## S661 peptide
[1]
  Kd: 2.6 nM
[2]
  stoichiometry N (per IR-ECD dimer): 2
